{"source": "patent US10736970B2", "about": "“Polypeptide complex of titin-telethonin beta-pleated sheet structure as polypeptide drug carrier, method of using the polypeptide complex, and fusion protein complex thereof” (TIANJIN INSTITUTE OF INDUSTRIAL BIOTECHNOLOGY, CHINESE …, priority 2015, dated 2020)", "key": {"[1]": {"test_system": "SD rats", "experiment": "Oral glucose tolerance test (OGTT) in rats, blood glucose", "format": "in vivo, rat", "details": "single i.p. 25 nmol/kg", "description": "(§1) The rats in the first three groups were given 25 nmol/kg by intraperitoneal injection, the rats in the PBS group were given the same volume of PBS, and the blood glucose was measured by a blood glucose meter. After 30 min, 2 g glucose/kg body weight was given by oral gavage, which was assumed to occur at 0 min, and then the blood glucose level was measured respectively at 10, 30, 60, 90, and 120 min. The area under curve (AUC) was calculated using Graphpad Prism 6.0 software. During the process, blood was taken from the tail vein respectively at 0, 10, and 30 min, added to a centrifuge tube containing EDTA-Na2, and centrifuged at 4000 rpm for 10 min. The supernatant was collected, and the insulin content was measured by using the Rat/Mouse Insulin Elisa kit (Millipore).\nSD rats of about 250 g were randomized into 4 groups (n=5), including a 1 nmol/kg group, a 5 nmol/kg group, a 25 nmol/kg group, and a PBS group.\nThe animals were allowed to free access to food for 12 h, and then fasted for 12 h. Then, OGTT was carried out. […]\nThe blood glucose level was measured by a blood glucose meter, and this was assumed to occur at −30 min. […] Then, the blood glucose was measured respectively at 10, 30, 60, 90, and 120 min. The area under curve (AUC) was calculated using Graphpad Prism 6.0 software."}, "[2]": {"test_system": "SD rats", "experiment": "Insulin content in rat plasma during OGTT", "format": "in vivo", "details": "single i.p. 25 nmol/kg", "description": "as §1\nIn the OGTT test of each group, blood was taken from the tail vein of rats at a time ranging from 10 to 30 min, and added dropwise to an Ep tube containing EDTA-Na2. The plasma was removed, and the insulin content was determined by using the Insulin Elisa kit (Millipore).\n(§2) During the process, blood was taken from the tail vein at a time ranging from 10 to 30 min, added to a centrifuge tube containing EDTA-Na2, and centrifuged at 4000 rpm for 10 min. The supernatant was collected, and the insulin content was measured by using the Rat/Mouse Insulin Elisa kit (Millipore)."}, "[3]": {"details": "literature / background value; cited from earlier work"}, "[4]": {"details": "rat, in vivo", "description": "Blood was sampled from the tail respectively at 0, 0.5, 1, 1.5, 2, 4, 6, and 10 h, and dripped into an Ep tube pretreated with EDTA-Na2. A DPP-4 inhibitor was immediately added (in 30 s) after the blood was sampled.\nThen, blood was taken respectively at 1, 2, 4, 8, and 24 h, and added dropwise to an Ep tube pretreated with EDTA-Na2.\n(§3) 1 nmol GLZ/TeN was administered to the SD rats (about 250 g) by intravenous (i.v) injection at the tail and by subcutaneous injection (s.c), and this was assumed to occur at 0 h. Blood was sampled from the tail vein of the rats respectively at 0.05, 0.5, 2, 4, 8, 11, 24, and 48 h, and dripped into an Ep tube pretreated with EDTA-Na2. The protease inhibitor protinin was immediately added (in 30 s) after the blood was sampled.\nas §3, with “2.8” for “1”, “GLRecom” for “GLZ/TeN”, “tail,” for “tail and by subcutaneous injection (s.c),”, “5, 10,” for “4, 8, 11,”, “a centrifugation” for “an Ep”"}, "[5]": {"test_system": "C57BL/6 mice", "experiment": "OGTT in C57BL/6 mice, blood glucose", "format": "in vivo, mouse", "details": "i.p. 10 nmol/kg", "description": "C57BL/6 mice of about 25 g were randomized into 3 groups (n=5), including a PBS group, a Z1Z2/GLTe-G group, and a GLRecom group. The animals in the Z1Z2/GLTe-G group and the GLRecom group were given the Z1Z2/GLTe-G and GLRecom respectively by intraperitoneal injection at a dosage of 10 nmol/kg body weight, and the animals in the PBS group were given the same volume of PBS. The blood glucose level was measured by a blood glucose meter, and this was assumed to occur at −30 min. After 30 min, 2 g glucose/kg body weight was given by oral gavage, and this was assumed to occur at 0 min. Then, the blood glucose was measured respectively at 10, 30, 60, 90, and 120 min. The AUC was calculated by using the Graphpad Prism 6.0 software."}, "[6]": {"test_system": "C57BL/6 mice", "experiment": "Insulin content during OGTT in C57BL/6 mice", "format": "in vivo, mouse", "details": "i.p. 10 nmol/kg", "description": "as §2"}}, "data": [{"molecule": "CC[C@H](C)[C@H](NC(=O)[C@H](Cc1ccccc1)NC(=O)[C@H](CCC(=O)O)NC(=O)[C@H](CCCCN)NC(=O)[C@H](C)NC(=O)[C@H](C)NC(=O)[C@H](CCC(N)=O)NC(=O)CNC(=O)[C@H](CCC(=O)O)NC(=O)[C@H](CC(C)C)NC(=O)[C@H](Cc1ccc(O)cc1)NC(=O)[C@H](CO)NC(=O)[C@H](CO)NC(=O)[C@@H](NC(=O)[C@H](CC(=O)O)NC(=O)[C@H](CO)NC(=O)[C@@H](NC(=O)[C@H](Cc1ccccc1)NC(=O)[C@@H](NC(=O)CNC(=O)[C@H](CCC(=O)O)NC(=O)[C@H](C)NC(=O)[C@@H](N)Cc1c[nH]cn1)[C@@H](C)O)[C@@H](C)O)C(C)C)C(=O)N[C@@H](C)C(=O)N[C@@H](Cc1c[nH]c2ccccc12)C(=O)N[C@@H](CC(C)C)C(=O)N[C@H](C(=O)N[C@@H](CCCCN)C(=O)NCC(=O)N[C@@H](CCCNC(=N)N)C(=O)NCC(=O)O)C(C)C", "note": "[GLP-1, Glucagon-like peptide 1, reference compound]", "values": [{"measurement": "period of time of effective blood glucose control in OGTT", "setting": "[1]", "value": 30, "unit": "min"}, {"measurement": "effect on blood glucose level in OGTT", "setting": "[1]; 2 g glucose/kg oral after 30 min", "value": "significantly reduce the blood glucose level"}, {"measurement": "blood insulin content during OGTT", "setting": "[2]", "value": "significantly increase the blood insulin content"}]}, {"molecule": "Peptide Tyrosin-tyrosin [PYY]", "values": [{"measurement": "in-vivo half-life period of native peptide", "setting": "[3]", "value": 8, "unit": "min"}]}, {"molecule": "GLRecom: Single fusion protein: GLP-1(8G)-Z1Z2, Telethonin beta-pleated sheet region and second Z1Z2 connected via linkers (SEQ ID NO: 20), 60.0 kDa (protein) MKHHHHHHPMSDYDIPTTENLYFQHGEGTFTSDVSSYLEGQAAKEFIAWLVKGRGGGGGSGGGGSGGGGSAMATQAPTFTQPLQSVVVLEGSTATFEAHISGFPVPEVSWFRDGQVISTSTLPGVQISFSDGRAKLTIPAVTKANSGRYSLKATNGSGQATSTAELLVKAETAPPNFVQRLQSMTVRQGSQVRLQVRVTGIPTPVVKFYRDGAEIQSSLDFQISQEGDLYSLLIAEAYPEDSGTYSVNATNSVGRATSTAELLVQGSGSGSAPGTPGGGGSGGGGSGGGGSMATSELSSEVSEENSERREAFWAEWKDLTLSTRPEEGSSLHEEDTQRHETYHQQGQSQVLVQRSPWLMMRMGILGRGLQEYQLPYQRVLPGASGPAGSPTGSGPGSAGSGPGSAGMATQAPTFTQPLQSVVVLEGSTATFEAHISGFPVPEVSWFRDGQVISTSTLPGVQISFSDGRAKLTIPAVTKANSGRYSLKATNGSGQATSTAELLVKAETAPPNFVQRLQSMTVRQGSQVRLQVRVTGIPTPVVKFYRDGAEIQSSLDFQISQEGDLYSLLIAEAYPEDSGTYSVNATNSVGRATSTAELLVQG", "values": [{"measurement": "half-life period after intravenous injection", "setting": "[4]", "value": "13.4 ± 0.8", "unit": "h"}, {"measurement": "half-life period relative to Z1Z2/GLTe-G complex (4 h)", "setting": "[4]; iv", "value": "more than 3 times"}, {"measurement": "AUC of blood glucose in OGTT", "setting": "[5]", "value": "significantly reduced"}, {"measurement": "blood glucose reducing effect in OGTT", "setting": "[5]; 2 g/kg glucose", "value": "significant blood glucose reducing effect"}, {"measurement": "blood glucose level at 120 min in OGTT", "setting": "[5]; 120 min", "value": "still significantly reduced"}, {"measurement": "level of insulin secretion", "setting": "[6]", "value": "significantly enhance the level of insulin secretion"}]}]}
